# Tests used:
# Test in all cases: competition
# [1] = target: SARS-COV-2 full-length trimeric spike protein, Alpha (B.1.1.7) (SARS-COV-2)
# [2] = target: SARS-COV-2 full-length trimeric spike protein, Beta (B1.351) (SARS-COV-2)
# [3] = target: Trimeric S-protein corresponding to Omicron (B.1.1.529) (SARS-COV-2)
# [4] = target: SARS-COV-2 full-length trimeric spike protein, Gamma (P.1) (SARS-COV-2)
# [5] = target: SARS-COV-2 full-length trimeric spike protein, Delta (B.1.617.2) (SARS-COV-2)
Binder,IC50 [1] [nM],IC50 [2] [nM],IC50 [3] [nM],IC50 [4] [nM],IC50 [5] [nM]
ACE2-M2-FcKO (Fc fusion) STIEEQAKYFLDYFNVQAEDLFYQSSLASWNYNTNITEENVQNMNNAGDKWSAFLKEQSTYAQRYPLQEIQNLTVKLQLQALQQNGSSVLSEDKSKRLNTILNTMSTIYSTGKVCNPDNPQECLLLEPGLNEIMANSLDYNERLWAWESWRSEVGKQLRPLYEEYVVLKNEMARANHYEDYGDYWRGDYEVNGVDGYDYSRGQLIEDVEHTFEEIKPLYEHLHAYVRAKLMNAYPSYISPIGCLPAHLLGDMWGRFWTNLYSLTVPFGQKPNIDVTDAMVDQAWDAQRIFKEAEKFFVSVGLPNMTQGFWEYSMLTDPGNVQKAVCHPTAWDLGKGDFRILMCTKVTMDDFLTAHREMGRIQYDMAYAAQPFLLRNGANEGFHEAVGEIMSLSAATPKHLKSIGLLSPDFQEDNETEINFLLKQALTIVGTLPFTYMLEKWRWMVFKGEIPKDQWMKKWWEMKREIVGVVEPVPHDETYCDPASLFHVSNDYSFIRYYTRTLYQFQFQEALCQAAKHEGPLHKCDISNSTEAGQKLFNMLRLGKSEPWTLALENVVGAKNMNVRPLLNYFEPLFTWLKDQNKNSFVGWSTDWSPYADQSIKVRISLKSALGDKAYEWNDNEMYLFRSSVAYAMRQYFLKVKNQMILFGEEDVRVANLKPRISFNFFVTAPKNVSDIIPRTEVEKAIRMSRSRINDAFRLNDNSLEFLGIQPTLGPPNQPPVSSGGGGSGGGGSGGGGSEPKSSDKTHTCPPCPAPPVAGPSVFLFPPKPKDTLMISRTPEVTCVVVGVSHEDPEVKFNWYVDGVEVHNAKTKPREEQYNSTYRVVSVLTVLHQDWLNGKEYKCKVSNKQLPSPIEKTISKAKGQPGQPREPQVYTLPPSRDELTKNQVSLTCLVKGFYPSDIAVEWESNGQPENNYKTTPPVLDSDGSFFLYSKLTVDKSRWQQGNVFSCSVMHEALHNHYTQKSLSLSPGK,4.3,3.9,0.7,3.6,3.3
ACE2-M1-FcKO (Fc fusion) STIEEQAKYFLDKFNHEAEDLFYQSSLASWNYNTNITEENVQNMNNAGDKWSAFLKEQSTYAQMYPLQEIQNLTVKLQLQALQQNGSSVLSEDKSKRLNTILNTMSTIYSTGKVCNPDNPQECLLLEPGLNEIMANSLDYNERLWAWESWRSEVGKQLRPLYEEYVVLKNEMARANHYEDYGDYWRGDYEVNGVDGYDYSRGQLIEDVEHTFEEIKPLYEHLHAYVRAKLMNAYPSYISPIGCLPAHLLGDMWGRFWTNLYSLTVPFGQKPNIDVTDAMVDQAWDAQRIFKEAEKFFVSVGLPNMTQGFWEYSMLTDPGNVQKAVCHPTAWDLGKGDFRILMCTKVTMDDFLTAHREMGRIQYDMAYAAQPFLLRNGANEGFHEAVGEIMSLSAATPKHLKSIGLLSPDFQEDNETEINFLLKQALTIVGTLPFTYMLEKWRWMVFKGEIPKDQWMKKWWEMKREIVGVVEPVPHDETYCDPASLFHVSNDYSFIRYYTRTLYQFQFQEALCQAAKHEGPLHKCDISNSTEAGQKLFNMLRLGKSEPWTLALENVVGAKNMNVRPLLNYFEPLFTWLKDQNKNSFVGWSTDWSPYADQSIKVRISLKSALGDKAYEWNDNEMYLFRSSVAYAMRQYFLKVKNQMILFGEEDVRVANLKPRISFNFFVTAPKNVSDIIPRTEVEKAIRMSRSRINDAFRLNDNSLEFLGIQPTLGPPNQPPVSSGGGGSGGGGSGGGGSEPKSSDKTHTCPPCPAPPVAGPSVFLFPPKPKDTLMISRTPEVTCVVVGVSHEDPEVKFNWYVDGVEVHNAKTKPREEQYNSTYRVVSVLTVLHQDWLNGKEYKCKVSNKQLPSPIEKTISKAKGQPGQPREPQVYTLPPSRDELTKNQVSLTCLVKGFYPSDIAVEWESNGQPENNYKTTPPVLDSDGSFFLYSKLTVDKSRWQQGNVFSCSVMHEALHNHYTQKSLSLSPGK,6.9,3.9,0.5,3.8,1.8
